# Measured values: PMC7391724 (Scientific Reports, 2020)
# Like-named read-outs stand apart in the source and are kept apart here.
# Tests used:
# Plasma stability, dog = type: in vitro ADME; conditions: 500 nM, 37 °C, 2 h
# Protocol: Whole blood and plasma stability were determined for EC2629 and EC2491 at a concentration of 500 nM. Samples were extracted and analyzed using fit-for-purpose bioanalytical methods. EC2629 or EC2491 was spiked into 1 mL whole blood or plasma maintained at 37 °C for 30 min prior to use . Fifty µl aliquots were then removed at defined timepoints and stored in a 1.2 mL extraction plate prior to analysis. Samples were then extracted using protein precipitation with a 3:1 ratio of acetonitrile after addition of internal standard. The supernatant was then transferred to a new plate, evaporated, and reconstituted prior to LC–MS/MS analysis.
# [1] = Plasma pharmacokinetics after intravenous EC2629 in rats; type: in vivo; conditions: rat
# Protocol: The plasma pharmacokinetics of EC2629 and metabolite EC2491 were evaluated following intravenous administration of EC2629 to male and female rats. The toxicokinetic phase of the study consisted of 5 groups with three animals/gender assigned to the control group, and nine animals/gender assigned to each of the treatment groups. […] Blood samples were collected from Group 0 at 10 min post-dose, and from Groups 1–4 at pre-dose, 2, 10, and 30 min and 1, 2, 8, 12, and 24 h post-dose. Plasma was prepared and analyzed for concentrations of EC2629 and metabolite EC2491. Mean plasma EC2629 and EC2491 concentration–time data for males and females, separately, of Groups 1–4 and were subjected to noncompartmental toxicokinetic evaluations and the results are summarized in Table S3.
# [2] = Plasma protein binding (ultrafiltration), mouse; type: in vitro ADME; conditions: 37 °C
# Protocol: Plasma ultrafiltration was used for determination of free and protein bound fractions of EC2629 and EC2491. Samples were extracted and analyzed using fit-for-purpose bioanalytical methods. Briefly, 500 nM EC2629 or EC2491 was spiked into plasma maintained at 37 °C prior to plasma ultrafiltration. Plasma spiked with 500 nM EC2629 or EC2491 was allowed to equilibrate at 37 °C for 30 min prior to processing. Next, 50 μL of plasma was transferred to a clean 1.2 mL plate stored at 2–8 °C for further processing. The remaining plasma sample volumes were transferred to 30 Kd MWCO PES filter to generate plasma ultrafiltrate by centrifugation at 10,000×g for 20 min. After which, 50 μL of each plasma ultrafiltrate was transferred to separate wells in a clean 1.2 mL plate. To all spiked plasma samples, 50 μL of blank plasma ultrafiltrate was added. 50 μL of blank plasma was added to all experimental ultrafiltrate samples. These blank matrix additions normalized the matrix effects for protein binding determination. Samples were then extracted using protein precipitation with a 3:1 ratio of acetonitrile after addition of internal standard. The supernatant transferred to a new plate, evaporated, and reconstituted prior to LC–MS/MS analysis.
# [3] = 0.1 mg/kg, 0.10 mg/kg iv, female, Group 2
# [4] = 0.1 mg/kg, 0.10 mg/kg iv, male, Group 2
# [5] = 0.5 mg/kg, 0.50 mg/kg iv, female, Group 4
# [6] = 0.5 mg/kg, 0.50 mg/kg iv, male, Group 4
smiles,measurement,setting,value
C=C1C[C@H]2C=Nc3cc(OCCCCCOc4cc(N)c(C(=O)N5CC(=C)C[C@H]5C5OCCN5C(=O)OCC(C)(C)SSCCC(=O)NCCNC(=O)CCOCCOCCOCCOCCNC(=O)CCN5C(=O)CC(SC[C@H](NC(=O)[C@H](CC(=O)O)NC(=O)[C@H](CC(=O)O)NC(=O)[C@H](CCCNC(=N)N)NC(=O)[C@H](CC(=O)O)NC(=O)CC[C@H](NC(=O)c6ccc(NCc7cnc8nc(N)[nH]c(=O)c8n7)cc6)C(=O)O)C(=O)O)C5=O)cc4OC)c(OC)cc3C(=O)N2C1 (some centres unmarked) [EC2629],plasma stability,"Plasma stability, dog",stable
same,clearance,"[1]; both sexes, across 0.05-0.50 mg/kg iv dose groups, males and females, read-out: Clearance (Cl), range",1.51 to 2.9 mL/min/kg
same,Vd,"[1]; both sexes, across 0.05-0.50 mg/kg iv dose groups, males and females, read-out: volume of distribution (Vz), range",0.109 to 0.191 L/kg
same,AUC(0-inf),"[1]; 0.05 mg/kg iv, female, Group 1",287 ng·h/mL
same,AUC(0-t),"[1]; 0.05 mg/kg iv, female, Group 1",260 ng·h/mL
same,C0,"[1]; 0.05 mg/kg iv, female, Group 1",662 ng/mL
same,Cmax,"[1]; 0.05 mg/kg iv, female, Group 1",545 ng/mL
same,Tmax,"[1]; 0.05 mg/kg iv, female, Group 1",1.98 min
same,half-life,"[1]; 0.05 mg/kg iv, female, Group 1",37.6 min
same,clearance,"[1]; 0.05 mg/kg iv, female, Group 1, read-out: Cl (converted)",2.9 mL/min/kg
same,Vd,"[1]; 0.05 mg/kg iv, female, Group 1, read-out: Vz",0.157 L/kg
same,AUC(0-inf),"[1]; 0.05 mg/kg iv, male, Group 1",384 ng·h/mL
same,AUC(0-t),"[1]; 0.05 mg/kg iv, male, Group 1",305 ng·h/mL
same,C0,"[1]; 0.05 mg/kg iv, male, Group 1",669 ng/mL
same,Cmax,"[1]; 0.05 mg/kg iv, male, Group 1",595 ng/mL
same,Tmax,"[1]; 0.05 mg/kg iv, male, Group 1",1.98 min
same,half-life,"[1]; 0.05 mg/kg iv, male, Group 1",61.2 min
same,clearance,"[1]; 0.05 mg/kg iv, male, Group 1, read-out: Cl (converted)",2.17 mL/min/kg
same,Vd,"[1]; 0.05 mg/kg iv, male, Group 1, read-out: Vz",0.191 L/kg
same,AUC(0-inf),[1]; [3],633 ng·h/mL
same,AUC(0-t),[1]; [3],596 ng·h/mL
same,C0,[1]; [3],1570 ng/mL
same,Cmax,[1]; [3],1330 ng/mL
same,Tmax,[1]; [3],1.98 min
same,half-life,[1]; [3],31.5 min
same,clearance,"[1]; 0.1 mg/kg, 0.10 mg/kg iv, female, Group 2, read-out: Cl (converted)",2.63 mL/min/kg
same,Vd,"[1]; 0.1 mg/kg, 0.10 mg/kg iv, female, Group 2, read-out: Vz",0.12 L/kg
same,AUC(0-inf),[1]; [4],699 ng·h/mL
same,AUC(0-t),[1]; [4],617 ng·h/mL
same,C0,[1]; [4],1690 ng/mL
same,Cmax,[1]; [4],1390 ng/mL
same,Tmax,[1]; [4],1.98 min
same,half-life,[1]; [4],42.4 min
same,clearance,"[1]; 0.1 mg/kg, 0.10 mg/kg iv, male, Group 2, read-out: Cl (converted)",2.38 mL/min/kg
same,Vd,"[1]; 0.1 mg/kg, 0.10 mg/kg iv, male, Group 2, read-out: Vz",0.146 L/kg
same,AUC(0-inf),"[1]; 0.25 mg/kg iv, female, Group 3",1750 ng·h/mL
same,AUC(0-t),"[1]; 0.25 mg/kg iv, female, Group 3",1640 ng·h/mL
same,C0,"[1]; 0.25 mg/kg iv, female, Group 3",3740 ng/mL
same,Cmax,"[1]; 0.25 mg/kg iv, female, Group 3",3230 ng/mL
same,Tmax,"[1]; 0.25 mg/kg iv, female, Group 3",1.98 min
same,half-life,"[1]; 0.25 mg/kg iv, female, Group 3",31.8 min
same,clearance,"[1]; 0.25 mg/kg iv, female, Group 3, read-out: Cl (converted)",2.38 mL/min/kg
same,Vd,"[1]; 0.25 mg/kg iv, female, Group 3, read-out: Vz",0.109 L/kg
same,AUC(0-inf),"[1]; 0.25 mg/kg iv, male, Group 3",1930 ng·h/mL
same,AUC(0-t),"[1]; 0.25 mg/kg iv, male, Group 3",1670 ng·h/mL
same,C0,"[1]; 0.25 mg/kg iv, male, Group 3",4310 ng/mL
same,Cmax,"[1]; 0.25 mg/kg iv, male, Group 3",3580 ng/mL
same,Tmax,"[1]; 0.25 mg/kg iv, male, Group 3",1.98 min
same,half-life,"[1]; 0.25 mg/kg iv, male, Group 3",46.2 min
same,clearance,"[1]; 0.25 mg/kg iv, male, Group 3, read-out: Cl (converted)",2.15 mL/min/kg
same,Vd,"[1]; 0.25 mg/kg iv, male, Group 3, read-out: Vz",0.144 L/kg
same,AUC(0-inf),[1]; [5],3540 ng·h/mL
same,AUC(0-t),[1]; [5],3230 ng·h/mL
same,C0,[1]; [5],7060 ng/mL
same,Cmax,[1]; [5],6070 ng/mL
same,Tmax,[1]; [5],1.98 min
same,half-life,[1]; [5],36.7 min
same,clearance,"[1]; 0.5 mg/kg, 0.50 mg/kg iv, female, Group 4, read-out: Cl (converted)",2.35 mL/min/kg
same,Vd,"[1]; 0.5 mg/kg, 0.50 mg/kg iv, female, Group 4, read-out: Vz",0.125 L/kg
same,AUC(0-inf),[1]; [6],5510 ng·h/mL
same,AUC(0-t),[1]; [6],5450 ng·h/mL
same,C0,[1]; [6],8450 ng/mL
same,Cmax,[1]; [6],7080 ng/mL
same,Tmax,[1]; [6],1.98 min
same,half-life,[1]; [6],84 min
same,clearance,"[1]; 0.5 mg/kg, 0.50 mg/kg iv, male, Group 4, read-out: Cl (converted)",1.51 mL/min/kg
same,Vd,"[1]; 0.5 mg/kg, 0.50 mg/kg iv, male, Group 4, read-out: Vz",0.183 L/kg
same,"fraction unbound at 30 min, 500 nM",[2],0.051
